Tests used:
Test in all cases: X-ray crystallography; UMPNPP, Mg2+; Crystals: DNA mixed with ~10 mg/mL protein (4:1 molar) on ice 1 h; cryoprotectant/soak 100 mM HEPES pH 7.5, 20% PEG 4000, 10 mM MgCl2, 50 mM NaCl, 5% glycerol
[1] = biological target: hPol μΔ2 wildtype (DNA polymerase mu catalytic domain, Loop2 deleted) (human, UniProt Q9NP87 132-397+=G+411-494, internal_change)
[2] = biological target: hPol μΔ2 G433A (human, UniProt Q9NP87 132-397+=G+411-494, G433A;internal_change)
[3] = biological target: hPol μΔ2 W434A (human, UniProt Q9NP87 132-397+=G+411-494, W434A;internal_change)

Measured: binding result

Chain of hPol μΔ2 G433A (Q9NP87 other isoform, or with tags, fused parts or gaps G433A/| G433A G433A): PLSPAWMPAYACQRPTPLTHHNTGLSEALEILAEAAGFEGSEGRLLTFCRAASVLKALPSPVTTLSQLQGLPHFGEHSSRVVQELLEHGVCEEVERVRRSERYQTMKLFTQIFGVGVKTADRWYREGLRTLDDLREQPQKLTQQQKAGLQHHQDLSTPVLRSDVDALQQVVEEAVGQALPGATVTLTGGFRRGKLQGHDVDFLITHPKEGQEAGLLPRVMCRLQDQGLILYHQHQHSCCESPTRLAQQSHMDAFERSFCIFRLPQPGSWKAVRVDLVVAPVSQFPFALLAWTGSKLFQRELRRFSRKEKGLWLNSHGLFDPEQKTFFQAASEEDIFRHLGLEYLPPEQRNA
Chain of hPol μΔ2 W434A (Q9NP87 other isoform, or with tags, fused parts or gaps W434A/| W434A W434A): as the sequence (Q9NP87 other isoform, or with tags, fused parts or gaps G433A/| G433A G433A) above, with A290G, W291A counted along it
Chain of hPol μΔ2 wildtype (DNA polymerase mu catalytic domain, Loop2 deleted) (Q9NP87 other isoform, or with tags, fused parts or gaps | mutant): as the sequence (Q9NP87 other isoform, or with tags, fused parts or gaps G433A/| G433A G433A) above, with A290G counted along it

B1: 1-nt gapped DNA (pre-catalytic) (dsDNA)
DNA 1: CGGCATACG
DNA 2: CGTA
DNA 3: GCCG
modifications: 5'-phosphate on downstream primer GCCG
binds: all assays above
